Article PMC2758918 (Nature structural & molecular biology, 2009)

Legend:
crystal structure = target: the molecule itself; assay: crystal structure
FRET or BRET = target: the molecule itself; assay: FRET or BRET

Protein	stoichiometry N (crystal structure)	binding result (FRET or BRET)
zinc transporter YiiP from Escherichia coli (natural protein, UniProt P69380 1-300, looked up, ethyl mercury phosphate or thiomerosal bound to C127 (crystal derivatives)) MNQSYGRLVSRAAIAATAMASLLLLIKIFAWWYTGSVSILAALVDSLVDIGASLTNLLVVRYSLQPADDNHSFGHGKAESLAALAQSMFISGSALFLFLTGIQHLISPTPMTDPGVGVIVTIVALICTIILVSFQRWVVRRTQSQAVRADMLHYQSDVMMNGAILLALGLSWYGWHRADALFALGIGIYILYSALRMGYEAVQSLLDRALPDEERQEIIDIVTSWPGVSGAHDLRTRQSGPTRFIQIHLEMEDSLPLVQAHMVADQVEQAILRRFPGSDVIIHQDPCSVVPREGKRSMLS	2	–
YiiP^C127V doubly labeled with Alexa-488 and Alexa-647 (natural protein, Escherichia coli, UniProt P69380 1-300, looked up, Alexa donor-acceptor pair (Alexa-488, Alexa-647) on cysteine (Cys287)) MNQSYGRLVSRAAIAATAMASLLLLIKIFAWWYTGSVSILAALVDSLVDIGASLTNLLVVRYSLQPADDNHSFGHGKAESLAALAQSMFISGSALFLFLTGIQHLISPTPMTDPGVGVIVTIVALIVTIILVSFQRWVVRRTQSQAVRADMLHYQSDVMMNGAILLALGLSWYGWHRADALFALGIGIYILYSALRMGYEAVQSLLDRALPDEERQEIIDIVTSWPGVSGAHDLRTRQSGPTRFIQIHLEMEDSLPLVQAHMVADQVEQAILRRFPGSDVIIHQDPCSVVPREGKRSMLS	–	binds
